Experimental data as given in publication PMC8523606, “Two fungal flavonoid-specific glucosidases/rutinosidases for rutin hydrolysis and rutinoside synthesis under homogeneous and heterogeneous reaction conditions” (AMB Express, 2021).

How the values were obtained:
Settings in all cases: 50 mM citrate buffer, 10% (v/v) DMSO
[1] = test system: C[C@@H]1O[C@@H](OC[C@H]2O[C@@H](Oc3c(-c4ccc(O)c(O)c4)oc4cc(O)cc(O)c4c3=O)[C@H](O)[C@@H](O)[C@@H]2O)[C@H](O)[C@H](O)[C@H]1O; test: purified protein
[2] = test system: COc1ccc([C@@H]2CC(=O)c3c(O)cc(O[C@@H]4O[C@H](CO[C@@H]5O[C@@H](C)[C@H](O)[C@@H](O)[C@H]5O)[C@@H](O)[C@H](O)[C@H]4O)cc3O2)cc1O; test: purified protein
[3] = test system: O=c1c(O[C@@H]2O[C@H](CO)[C@@H](O)[C@H](O)[C@H]2O)c(-c2ccc(O)c(O)c2)oc2cc(O)cc(O)c12; test: purified protein
[4] = test system: COc1cc(-c2oc3cc(O)cc(O)c3c(=O)c2O[C@@H]2O[C@H](CO[C@@H]3O[C@@H](C)[C@H](O)[C@@H](O)[C@H]3O)[C@@H](O)[C@H](O)[C@H]2O)ccc1O; test: purified protein
[5] = substrate: COc1ccc([C@@H]2CC(=O)c3c(O)cc(O[C@@H]4O[C@H](CO[C@@H]5O[C@@H](C)[C@H](O)[C@@H](O)[C@H]5O)[C@@H](O)[C@H](O)[C@H]4O)cc3O2)cc1O; test: hydrolysis, aglycone release by HPLC; assay type: biochemical, Penicillium rubens
From the text: (§1) hydrolysis, aglycone release by HPLC on PcGlc

[6] = substrate: O=c1c(O[C@@H]2O[C@H](CO)[C@@H](O)[C@H](O)[C@H]2O)c(-c2ccc(O)c(O)c2)oc2cc(O)cc(O)c12; test: hydrolysis, aglycone release by HPLC; assay type: biochemical, Penicillium rubens
From the text: as §1

[7] = substrate: COc1cc(-c2oc3cc(O)cc(O)c3c(=O)c2O[C@@H]2O[C@H](CO[C@@H]3O[C@@H](C)[C@H](O)[C@@H](O)[C@H]3O)[C@@H](O)[C@H](O)[C@H]2O)ccc1O; test: hydrolysis, aglycone release by HPLC; assay type: biochemical, Penicillium rubens
From the text: as §1

[8] = substrate: C[C@@H]1O[C@@H](OC[C@H]2O[C@@H](Oc3c(-c4ccc(O)c(O)c4)oc4cc(O)cc(O)c4c3=O)[C@H](O)[C@@H](O)[C@@H]2O)[C@H](O)[C@H](O)[C@H]1O; test: hydrolysis, aglycone release by HPLC; assay type: biochemical, Penicillium rubens
From the text: as §1

## McGlc (Mucor circinelloides)
[1]
  Km: 120 ± 30 µM
  kcat: 22.7 ± 0.5 s⁻¹
  kcat/Km: 189000 M⁻¹ s⁻¹
[2]
  Km: 4800 ± 100 µM
  kcat: 23 ± 1.7 s⁻¹
  kcat/Km: 4800 M⁻¹ s⁻¹
[3]
  Km: 40 ± 10 µM
  kcat: 53.9 ± 1.9 s⁻¹
  kcat/Km: 1.35e+06 M⁻¹ s⁻¹
[4]
  Km: 210 ± 90 µM
  kcat: 69.1 ± 6 s⁻¹
  kcat/Km: 257000 M⁻¹ s⁻¹

B1: PcGlc (Penicillium rubens Wisconsin 54-1255) (protein)
chain: TPTSFHLSPNNNISHDYINWRTFHGRGVNLGGWLQQESTIDTSWWSTYSGGASDEWNLCAQLGSKCGPVLEHRYKTFITTRDIDTLASSGVTVLRIPTSYAAWVRVPGSQLYSGKQKEHIHRIATYAIEKYDMHIILDIHSLPGGINGLDIGEAVGHWGWYNNDTALKYSLDAVDSALHFIQFSSGHPQSYTLSPINEPVDNRDFSTFGTPAALSEAGASWVLKYLHAVIDRTKKVNPRIPVMCQGSFKPETYWSPHFDAGANIVFDEHHYYFQYSNSTSANLPEFLCQDAKKSAGDGKFPTFVGEWAIEASDNDLGLRGQNLQAGISAFGQFTRGSSYWTAKFSSNATIKGEGVKGNYWNYEEFVRMGYLDGQVEVPNYCQ
notes: secreted from recombinant Pichia pastoris KM71H, purified by cation exchange chromatography, glycosylated
[5]
  Km: 380 ± 90 µM
  kcat: 9.3 ± 0.8 s⁻¹
  kcat/Km: 24500 M⁻¹ s⁻¹
[6]
  Km: 30 ± 6 µM
  kcat: 30.3 ± 1.5 s⁻¹
  kcat/Km: 1.01e+06 M⁻¹ s⁻¹
[7]
  Km: 290 ± 100 µM
  kcat: 120 ± 13 s⁻¹
  kcat/Km: 414000 M⁻¹ s⁻¹
[8]
  Km: 210 ± 60 µM
  kcat: 39.3 ± 1.2 s⁻¹
  kcat/Km: 187000 M⁻¹ s⁻¹
